T1: Human OX40 (R&D Systems, 3388-OX) (human, UniProt P43489 29-216)
T1 construct: bought; also called OX40-Fc; Human OX40 (R&D systems, #3358_OX)
T1 sequence (looked up): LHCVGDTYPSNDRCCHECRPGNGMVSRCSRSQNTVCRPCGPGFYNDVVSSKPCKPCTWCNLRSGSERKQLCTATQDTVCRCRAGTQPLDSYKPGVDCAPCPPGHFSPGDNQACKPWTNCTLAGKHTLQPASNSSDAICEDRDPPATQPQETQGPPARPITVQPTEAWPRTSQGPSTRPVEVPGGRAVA

B1: 1210/1211 (antibody, IgG1, V domains shown)
VH: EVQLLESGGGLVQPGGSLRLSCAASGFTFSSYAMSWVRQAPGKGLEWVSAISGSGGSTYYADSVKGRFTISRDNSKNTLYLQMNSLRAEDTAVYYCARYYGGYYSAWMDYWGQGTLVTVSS
VL: DIQMTQSPSSLSASVGDRVTITCRASQSISSYLNWYQQKPGKAPKLLIYAASSLQSGVPSRFSGSGSGTDFTLTISSLQPEDFATYYCQQTYGYLHTFGQGTKLEIK
notes: 5T4 antibody
B2: 1206/1207 (antibody, V domains shown)
VH: EVQLLESGGGLVQPGGSLRLSCAASGFTFSGSSMSWVRQAPGKGLEWVSSIYYSGSGTYYADSVKGRFTISRDNSKNTLYLQMNSLRAEDTAVYYCARYGRNVHPYNLDYWGQGTLVTVSS
VL: DIQMTQSPSSLSASVGDRVTITCRASQSISSYLNWYQQKPGKAPKLLIYAASSLQSGVPSRFSGSGSGTDFTLTISSLQPEDFATYYCQQGYYYLPTFGQGTKLEIK
notes: 5T4 antibody

Tests used:
[1] = target: T2, human/mouse 5T4 chimera E1; assay: flow cytometry, cells with 5T4 chimera; % positive cells over that of the best clone
T2 construct: on stably transfected CHO cells
Description: (§1) Epitope mapping was performed by investigation of loss of binding by the antibodies using a panel of human/mouse chimeric 5T4 constructs by flow cytometry. […] Two strategies were used for the epitope mapping as illustrated in FIG. 5. In one approach, seven human/mouse 5T4 chimeras were constructed based on dividing 5T4 into seven different domains (FIG. 5). By replacing each domain with the corresponding mouse sequence seven human/mouse 7 5T4 human/mouse chimeras were generated. The chimeras were generated using the human protein 5T4 sequence NP_006661.1 (reference mRNA sequence NM_006670.4) and the corresponding mouse sequence NP_035757.2 (reference mRNA sequence NM_011627.4). The human/mouse chimeric DNA constructs, as well as human and mouse wild-type 5T4, were cloned into pcDNA3.1 expression vectors. […] In the other approach, cells transfected with a human/mouse 5T4 chimera (Woods et al., 2002) was used, in which mouse sequence in amino acid 173-420 replaced the human sequence (FIG. 5). As controls human 5T4 and mouse 5T4-transfected cells were used.
(§2) For flow cytometric analysis, cells were stained with different 5T4 antibodies diluted in FACS buffer (PBS, 0.5% BSA). […] Samples were analysed by FACSverse (BD Biosciences, Heidelberg, Germany) and % positive cells were determined. To compensate for variations in % 5T4 positive cells in the various transfected populations, binding levels were normalized within each chimera by dividing % positive cells for each clone with % positive cells for the clones resulting in the highest % positive cells (% pos cellsclonX/% positive cellsₘₐₓ). A normalized value≤0.75 was defined as mAb binding being dependent on the replaced region, whereas a normalized value≤0.25 was defined as complete dependence.

[2] = target: T3, human/mouse 5T4 chimera E2; assay: as above
T3 construct: on stably transfected CHO cells
Description: as §1, §2

[3] = target: T4, human/mouse 5T4 chimera E3; assay: as above
T4 construct: on stably transfected CHO cells
Description: as §1, §2

[4] = target: T5, human/mouse 5T4 chimera E4; assay: as above
T5 construct: on stably transfected CHO cells
Description: as §1, §2

[5] = target: T6, human/mouse 5T4 chimera E5; assay: as above
T6 construct: on stably transfected CHO cells
Description: as §1, §2

[6] = target: T7, human/mouse 5T4 chimera E6; assay: as above
T7 construct: on stably transfected CHO cells
Description: as §1, §2

[7] = target: T8, human/mouse 5T4 chimera E7; assay: as above
T8 construct: on stably transfected CHO cells
Description: as §1, §2

[8] = target: T1, Human OX40 (R&D Systems, 3388-OX); assay: dual ELISA: OX40-Fc coated, detection with biotinylated 5T4-Fc and streptavidin-HRP, luminescence
Description: A dual ELISA was used to detect simultaneous binding of the two targets by the bispecific antibodies. ELISA plates were coated with OX40-Fc (R&D systems, #3388-OX, 0.5 μg/ml) over night at 4° C. followed by blocking with PBST+2% bovine serum albumin (BSA) for 1 h at room temperature (RT). […] Biotinylated 5T4-Fc (0.5 μg/ml), followed by HRP-labelled streptavidin (Pierce #21126) were used for detection. Super signal ELISA Pico Chemiluminescent Substrate (Thermo Scientific, #37069) was used as substrate and luminescence was measured using FLUOstar Optima.

Row | Binder | normalized % positive cells [1] | normalized % positive cells [2] | normalized % positive cells [3] | normalized % positive cells [4] | normalized % positive cells [5] | normalized % positive cells [6] | normalized % positive cells [7] | binding result [8]
1 | B1 | 0.99 | 0.02 | 0.9 | 0.69 | 0.89 | 0.89 | 0.96 | no binding (tested: about 80 nM (log[conc ab] 1.9))
2 | B2 | 0.96 | 0.74 | 0.25 | 0.52 | 0.9 | 0.94 | 0.94 | 
